Target: MPER-TM2 (gp41 residues 630-711, containing the complete TM region) (HIV-1)
Experiment: not stated; MPER-TM2 solubilized in a buffer containing β-D-octyl glucoside (β-OG); oligomeric state (Figure S5B)

Substance: MPER-TM2 (gp41 residues 630-711, containing the complete TM region) (domain or fragment)
- stoichiometry N: 3
